Assay [1] addresses hPD-1 protein (ELISA coat) (human) (UniProt Q15116). The assay can be described thus: ELISA against hPD-1 ECD-Fc protein (plate coat). A general note: An ELISA detects its analyte on a solid surface through an enzyme-linked reagent.
The target in assay [2] is human PD-1 on cells (human) (UniProt Q15116). The assay can be described thus: cell based RBA (flow cytometry): blocking of Biotin-hPD-L1 binding to CHOK1-hPD-1 cells.
Assay [3] deals with cynomolgus monkey PD-1 on cells (cynomolgus monkey) (UniProt B0LAJ3). The assay can be described thus: flow cytometry on CHOK1-cPD-1 cells. A general note: In flow cytometry, cells or beads pass a laser one at a time.
The target of assay [4] is human PD-1 on cells (human) (UniProt Q15116). The assay can be described thus: flow cytometry on CHOK1-hPD-1 cells.
Assay [5] shares this target. As to the kind of experiment: cell based RBA (flow cytometry): blocking of Biotin-hPD-L2 binding to CHOK1-hPD-1 cells.
The target is the same in assay [6].
For assay [7], the target named is mPD-1 protein (ELISA coat) (mouse) (UniProt Q02242). As to the kind of experiment: ELISA against mPD-1 ECD-Fc protein (plate coat).
Sequence of mPD-1 protein (ELISA coat) (mouse) (Q02242 25-167 limits assumed): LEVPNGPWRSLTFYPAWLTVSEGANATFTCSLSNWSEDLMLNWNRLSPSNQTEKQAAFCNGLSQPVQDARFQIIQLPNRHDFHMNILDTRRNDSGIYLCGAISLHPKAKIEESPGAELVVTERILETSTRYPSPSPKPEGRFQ

Sequence of human PD-1 on cells (human) (Q15116 25-288): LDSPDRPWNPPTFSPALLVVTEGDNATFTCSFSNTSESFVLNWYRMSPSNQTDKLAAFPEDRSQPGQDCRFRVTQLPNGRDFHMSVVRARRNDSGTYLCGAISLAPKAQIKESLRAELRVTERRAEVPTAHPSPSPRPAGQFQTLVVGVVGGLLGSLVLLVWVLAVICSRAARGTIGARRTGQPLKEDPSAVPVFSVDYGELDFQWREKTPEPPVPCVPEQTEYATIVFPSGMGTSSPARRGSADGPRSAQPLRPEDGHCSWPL
Sequence of hPD-1 protein (ELISA coat) (human) (Q15116 25-167 limits assumed): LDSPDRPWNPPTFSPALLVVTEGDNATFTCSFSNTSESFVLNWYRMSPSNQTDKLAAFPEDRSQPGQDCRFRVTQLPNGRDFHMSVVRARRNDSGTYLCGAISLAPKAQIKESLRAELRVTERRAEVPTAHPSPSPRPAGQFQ
Sequence of cynomolgus monkey PD-1 on cells (cynomolgus monkey) (B0LAJ3 entry or part of it limits assumed): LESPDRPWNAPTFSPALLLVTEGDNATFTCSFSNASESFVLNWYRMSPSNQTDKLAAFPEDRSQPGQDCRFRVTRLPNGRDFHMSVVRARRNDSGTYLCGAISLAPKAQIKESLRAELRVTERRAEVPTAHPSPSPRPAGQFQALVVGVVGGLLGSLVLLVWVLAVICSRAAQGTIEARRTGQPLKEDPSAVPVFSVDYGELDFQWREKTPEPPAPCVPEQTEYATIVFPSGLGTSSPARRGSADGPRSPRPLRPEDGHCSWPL

For control human IgG4 (antibody), the Max OD450 in assay [1] is 0.67; in assay [7] it was 0.92. Also, the values for the Inhibition rate in assay [2] and in assay [5] were 4.9% and -5.5%, respectively. Besides, the figures for the Max MFI in assay [3] and in assay [4] were 86 and 107, respectively. The EC50 printed for the negative control; its RLU curve is flat at about 270000 and falls to about 225000 at the highest concentration, no activation in assay [6] was 12.4 µg/mL.

(Values after patent US20210261665A1.)
